Values quoted from earlier work in article PMC2846234.

Target: beta sliding clamp (Escherichia coli) (UniProt P0A988)
Chain of UniProt P0A988 (P0A988 whole entry): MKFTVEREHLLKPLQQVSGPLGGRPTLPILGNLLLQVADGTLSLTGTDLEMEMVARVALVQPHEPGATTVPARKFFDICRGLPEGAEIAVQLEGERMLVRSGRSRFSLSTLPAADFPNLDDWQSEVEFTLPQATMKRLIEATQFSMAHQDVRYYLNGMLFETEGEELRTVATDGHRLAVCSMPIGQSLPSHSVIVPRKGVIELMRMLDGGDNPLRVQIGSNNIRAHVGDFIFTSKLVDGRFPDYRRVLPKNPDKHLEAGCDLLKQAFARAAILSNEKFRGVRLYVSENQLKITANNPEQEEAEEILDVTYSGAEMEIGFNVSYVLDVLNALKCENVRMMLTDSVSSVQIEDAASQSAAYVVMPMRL

Kd: 0.032 µM
Substance: DNA polymerase II (from UniProt P21189)
